In patent US20240325555A1 (LANOVA MEDICINES, published 2024):
Read-outs that look alike come from different tables or passages of the source.

What was measured:
[1] = biological target: T1, human LIV-1 (human, UniProt Q13433 29-755); experiment: FACS, HEK293/H_LIV-1 cells
T1 construct: whole, on cells; also called H-LIV1
T1 sequence (looked up): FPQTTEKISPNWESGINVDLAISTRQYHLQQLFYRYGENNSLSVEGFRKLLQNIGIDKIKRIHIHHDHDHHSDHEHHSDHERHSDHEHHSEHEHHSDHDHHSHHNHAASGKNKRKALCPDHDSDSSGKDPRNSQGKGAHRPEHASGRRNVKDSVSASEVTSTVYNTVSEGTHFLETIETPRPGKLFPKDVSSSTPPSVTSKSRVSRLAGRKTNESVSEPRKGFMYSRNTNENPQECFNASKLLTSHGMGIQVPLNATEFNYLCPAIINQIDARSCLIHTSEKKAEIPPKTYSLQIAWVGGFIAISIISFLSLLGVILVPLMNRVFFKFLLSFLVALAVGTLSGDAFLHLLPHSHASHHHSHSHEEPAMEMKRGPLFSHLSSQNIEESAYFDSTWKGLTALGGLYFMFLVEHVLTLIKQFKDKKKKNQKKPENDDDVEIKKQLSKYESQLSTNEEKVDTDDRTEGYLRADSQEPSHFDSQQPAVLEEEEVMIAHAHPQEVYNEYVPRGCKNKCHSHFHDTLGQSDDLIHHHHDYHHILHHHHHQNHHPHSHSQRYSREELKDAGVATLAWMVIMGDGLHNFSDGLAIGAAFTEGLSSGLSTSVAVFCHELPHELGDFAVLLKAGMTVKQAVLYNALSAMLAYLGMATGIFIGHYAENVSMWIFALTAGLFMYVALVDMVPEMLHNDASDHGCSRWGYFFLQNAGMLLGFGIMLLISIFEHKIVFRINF
How it was run: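 HEK293 cells expressing human LIV-1 incubated with humanized antibodies (from 100 nM, 6-fold dilutions, 8 points) at 4 °C for 60 min. Bound antibody detected with a fluorescent secondary antibody (4 °C, 30 min) by flow cytometry.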

[2] = biological target: T1, human LIV-1; experiment: FACS, HEK293/H_LIV-1 cells; remark: listed apart in the source
[3] = biological target: rhesus LIV-1 (rhesus, UniProt H9FSJ2 30-735); experiment: FACS, HEK293/Rhe_LIV-1 cells
Method: (§1) Humanized antibodies 5D6B10.z7, 124H4D11.p2.z4 and 290F10G10.p1.z2 were selected for further testing. In this example, FACS cross binding of these selected antibodies to LIV-1 of different species were assessed using flow cytometry.
(§2) Cell based binding of optimal leads to different species LIV-1 expressing cells were assessed using flow cytometry. Briefly, the cells were incubated with optimal leads (from 100 nM, 6 folds dilution, 8 points). After incubation at 4° C. for 60 minutes, the cells were washed with 2% FBS/PBS buffer twice, then stained with fluorescent conjugated secondary antibody at 4° C. for 30 minutes. After that the cells were washed twice and resuspended in 80 μL of 2% FBS/PBS buffer. Fluorescent signal of binding was detected using Agilent. The EC50 was calculated using the GraphPad Software (LaJolla, CA).

[4] = biological target: T1, human LIV-1; experiment: FACS, BT20/H_LIV-1 High cells
[5] = biological target: T1, human LIV-1; experiment: FACS, BT20/H_LIV-1 Low cells
[6] = biological target: T2, rat LIV-1 (rat, UniProt Q4V887 21-741); experiment: FACS, HEK293/Rat_LIV-1 cells
T2 construct: whole, on cells
T2 sequence (looked up): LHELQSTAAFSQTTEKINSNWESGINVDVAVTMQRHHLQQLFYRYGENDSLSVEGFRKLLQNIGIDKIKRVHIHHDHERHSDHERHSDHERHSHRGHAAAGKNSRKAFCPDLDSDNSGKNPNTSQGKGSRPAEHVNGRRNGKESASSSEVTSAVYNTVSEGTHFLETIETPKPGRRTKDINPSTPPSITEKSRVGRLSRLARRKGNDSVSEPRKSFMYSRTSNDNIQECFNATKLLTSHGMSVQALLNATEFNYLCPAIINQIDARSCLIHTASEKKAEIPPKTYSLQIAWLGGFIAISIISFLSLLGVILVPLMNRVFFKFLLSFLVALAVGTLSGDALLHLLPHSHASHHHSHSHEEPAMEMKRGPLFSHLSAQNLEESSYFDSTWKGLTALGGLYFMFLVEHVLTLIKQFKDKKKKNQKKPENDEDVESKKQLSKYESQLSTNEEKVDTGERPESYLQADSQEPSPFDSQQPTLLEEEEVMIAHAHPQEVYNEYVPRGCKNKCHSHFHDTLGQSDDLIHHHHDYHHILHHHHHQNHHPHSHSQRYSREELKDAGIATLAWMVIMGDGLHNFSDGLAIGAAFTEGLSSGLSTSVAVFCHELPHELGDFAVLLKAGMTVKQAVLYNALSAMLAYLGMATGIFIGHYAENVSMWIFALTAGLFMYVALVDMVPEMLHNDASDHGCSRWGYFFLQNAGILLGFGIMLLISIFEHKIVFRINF
Method: as §1, §2

[7] = biological target: T3, cynomolgus LIV-1 (cynomolgus, UniProt A0A2K5WH46 30-741); experiment: FACS, HEK293/Cyno_LIV-1 cells
Method: as §2

[8] = biological target: T1, human LIV-1; experiment: cell-based or functional assay
[9] = biological target: T3, cynomolgus LIV-1; experiment: FACS, HEK293/Cyno_LIV-1 cells; remark: listed apart in the source
[10] = biological target: T4, mouse LIV-1 (mouse, UniProt Q8C145 21-765); experiment: FACS, HEK293/Mouse_LIV-1 cells
T4 construct: whole, on cells
T4 sequence (looked up): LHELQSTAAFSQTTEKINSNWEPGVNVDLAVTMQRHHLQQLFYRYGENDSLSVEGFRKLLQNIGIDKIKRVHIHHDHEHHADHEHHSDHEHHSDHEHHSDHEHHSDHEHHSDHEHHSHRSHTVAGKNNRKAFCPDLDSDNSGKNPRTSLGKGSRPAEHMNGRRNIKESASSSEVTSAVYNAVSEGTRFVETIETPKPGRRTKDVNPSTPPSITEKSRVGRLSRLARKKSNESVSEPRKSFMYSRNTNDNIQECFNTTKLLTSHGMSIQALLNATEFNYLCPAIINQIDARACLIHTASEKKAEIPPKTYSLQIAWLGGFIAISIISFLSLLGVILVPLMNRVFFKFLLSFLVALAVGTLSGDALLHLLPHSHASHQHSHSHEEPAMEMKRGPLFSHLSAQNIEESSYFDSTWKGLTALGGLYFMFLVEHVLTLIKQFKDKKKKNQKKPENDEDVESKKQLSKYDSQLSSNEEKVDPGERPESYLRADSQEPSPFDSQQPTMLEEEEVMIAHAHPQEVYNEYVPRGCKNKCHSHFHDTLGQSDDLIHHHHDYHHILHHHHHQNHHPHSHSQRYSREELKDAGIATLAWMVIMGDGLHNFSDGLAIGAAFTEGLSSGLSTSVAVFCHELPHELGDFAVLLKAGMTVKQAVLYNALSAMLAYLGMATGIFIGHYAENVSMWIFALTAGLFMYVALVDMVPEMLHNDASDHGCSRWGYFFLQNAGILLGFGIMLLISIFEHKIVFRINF
Method: as §1, §2

T3 sequence (A0A2K5WH46 entry or part of it): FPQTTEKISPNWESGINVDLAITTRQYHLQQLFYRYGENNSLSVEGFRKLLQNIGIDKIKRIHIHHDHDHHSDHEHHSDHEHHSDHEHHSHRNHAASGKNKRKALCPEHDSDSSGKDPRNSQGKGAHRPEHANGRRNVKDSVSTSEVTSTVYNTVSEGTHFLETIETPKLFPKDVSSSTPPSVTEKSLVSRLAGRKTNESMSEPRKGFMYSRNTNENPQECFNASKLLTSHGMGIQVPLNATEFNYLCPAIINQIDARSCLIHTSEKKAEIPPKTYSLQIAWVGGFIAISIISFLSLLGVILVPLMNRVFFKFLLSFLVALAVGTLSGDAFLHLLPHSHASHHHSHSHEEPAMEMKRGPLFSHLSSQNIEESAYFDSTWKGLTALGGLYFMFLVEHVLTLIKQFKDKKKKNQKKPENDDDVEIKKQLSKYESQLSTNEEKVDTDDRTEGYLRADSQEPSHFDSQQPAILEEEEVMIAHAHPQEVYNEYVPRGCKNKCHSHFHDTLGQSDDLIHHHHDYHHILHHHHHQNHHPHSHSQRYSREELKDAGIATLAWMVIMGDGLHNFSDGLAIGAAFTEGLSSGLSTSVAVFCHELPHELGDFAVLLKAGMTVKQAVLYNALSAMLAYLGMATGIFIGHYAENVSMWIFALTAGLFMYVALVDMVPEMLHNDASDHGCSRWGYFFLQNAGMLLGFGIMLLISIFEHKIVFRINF
rhesus LIV-1, sequence (H9FSJ2 entry or part of it): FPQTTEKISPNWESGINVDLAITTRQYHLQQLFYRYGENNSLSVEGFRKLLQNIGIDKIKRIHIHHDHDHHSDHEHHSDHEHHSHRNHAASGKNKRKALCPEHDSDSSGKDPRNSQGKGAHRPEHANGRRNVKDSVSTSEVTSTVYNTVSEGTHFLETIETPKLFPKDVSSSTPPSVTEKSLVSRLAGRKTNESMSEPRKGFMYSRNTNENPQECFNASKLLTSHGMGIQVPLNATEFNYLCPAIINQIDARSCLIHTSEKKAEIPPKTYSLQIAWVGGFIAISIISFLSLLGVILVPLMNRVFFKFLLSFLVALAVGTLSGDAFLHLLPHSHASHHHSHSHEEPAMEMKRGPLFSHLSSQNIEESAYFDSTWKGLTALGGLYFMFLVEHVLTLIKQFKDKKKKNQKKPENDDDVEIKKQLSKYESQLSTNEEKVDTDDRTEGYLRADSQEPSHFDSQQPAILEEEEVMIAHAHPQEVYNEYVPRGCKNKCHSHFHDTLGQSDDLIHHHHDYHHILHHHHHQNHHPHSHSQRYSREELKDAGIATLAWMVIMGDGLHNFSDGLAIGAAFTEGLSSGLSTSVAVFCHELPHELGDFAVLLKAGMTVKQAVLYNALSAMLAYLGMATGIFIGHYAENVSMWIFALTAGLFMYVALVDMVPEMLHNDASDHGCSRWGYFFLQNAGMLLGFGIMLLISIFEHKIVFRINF

B1: 5D6B10.Z7 (antibody, V domains shown)
VH: QVQLVQSGGGVVQPGRSLRLSCTVSGFSLTTYGIHWVRQSPGKGLEWLGVIWTGGTTDYNAAFISRLTISKDNSKSTVYFQMNSLQAEDTAIYYCARGPSSYWGQGTLVTVSS
VL: EIVMTQSPATLSVSPGERATLSCKASQNVDTNVVWYQQKPGQSPRALIYSASYRYSGVPARFSGSGSGTEFTLTISSLQSEDFAVYFCQQYNNYPWTFGQGTKVEIK
Question: What does the source list for B1?
Answer: EC50 [1]: 0.22 nM; Top (MFI) [1]: 50700 MFI; EC50 [2]: 0.69 nM; Top (MFI) [2]: 102000 MFI; EC50 [3]: 0.3 nM; Top (MFI) [3]: 41000 MFI; EC50 [4]: 1.06 nM; Top (MFI) [4]: 152000 MFI; EC50 [5]: 0.51 nM; Top (MFI) [5]: 34700 MFI; Top (MFI) [6]: 255 MFI; binding result [6]: no binding (tested: 100 nM); EC50 [7]: 0.55 nM; Top (MFI) [7]: 13900 MFI; Internalization EC50 [8]: 5.7 nM; Internalization Top (MFI) [8]: 59100 MFI; EC50 [9]: 0.19 nM; Top (MFI) [9]: 20400 MFI; Top (MFI) [10]: 162 MFI; binding result [10]: no binding (tested: 100 nM)
